Experimental data: IntAct's records for PubMed 28533415

B1: Vacuolar protein 8 (Saccharomyces cerevisiae), P39968 (parent)
chain: MGSCCSCLKDSSDEASVSPIADNEREAVTLLLGYLEDKDQLDFYSGGPLKALTTLVYSDNLNLQRSAALAFAEITEKYVRQVSREVLEPILILLQSQDPQIQVAACAALGNLAVNNENKLLIVEMGGLEPLINQMMGDNVEVQCNAVGCITNLATRDDNKHKIATSGALIPLTKLAKSKHIRVQRNATGALLNMTHSEENRKELVNAGAVPVLVSLLSSTDPDVQYYCTTALSNIAVDEANRKKLAQTEPRLVSKLVSLMDSPSSRVKCQATLALRNLASDTSYQLEIVRAGGLPHLVKLIQSDSIPLVLASVACIRNISIHPLNEGLIVDAGFLKPLVRLLDYKDSEEIQCHAVSTLRNLAASSEKNRKEFFESGAVEKCKELALDSPVSVQSEISACFAILALADVSKLDLLEANILDALIPMTFSQNQEVSGNAAAALANLCSRVNNYTKIIEAWDRPNEGIRGFLIRFLKSDYATFEHIALWTILQLLESHNDKVEDLVKNDDDIINGVRKMADVTFERLQRSGIDVKNPGSNNNPSSNDNNSNNNDTGSEHQPVEDASLELYNITQQILQFLH
partner: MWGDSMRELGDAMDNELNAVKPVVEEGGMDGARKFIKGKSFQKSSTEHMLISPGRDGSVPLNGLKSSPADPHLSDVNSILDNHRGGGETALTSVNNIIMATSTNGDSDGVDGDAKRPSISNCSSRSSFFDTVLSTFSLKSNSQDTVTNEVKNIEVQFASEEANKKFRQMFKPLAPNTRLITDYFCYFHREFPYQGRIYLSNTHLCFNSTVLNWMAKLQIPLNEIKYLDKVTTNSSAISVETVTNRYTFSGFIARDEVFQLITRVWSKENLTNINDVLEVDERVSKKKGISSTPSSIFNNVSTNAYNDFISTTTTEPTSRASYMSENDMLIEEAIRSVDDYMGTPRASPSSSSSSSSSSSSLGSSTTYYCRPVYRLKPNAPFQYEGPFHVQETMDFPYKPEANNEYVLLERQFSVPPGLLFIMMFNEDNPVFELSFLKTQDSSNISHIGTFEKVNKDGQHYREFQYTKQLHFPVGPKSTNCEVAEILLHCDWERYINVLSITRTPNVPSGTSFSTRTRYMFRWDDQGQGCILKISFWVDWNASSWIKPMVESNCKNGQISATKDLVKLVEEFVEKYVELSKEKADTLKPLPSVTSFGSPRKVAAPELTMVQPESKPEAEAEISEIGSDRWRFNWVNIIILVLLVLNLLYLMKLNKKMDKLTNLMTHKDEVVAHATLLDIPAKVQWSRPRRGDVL
B2: Nucleus-vacuole junction protein 1 (Saccharomyces cerevisiae), P38881 (parent)
chain: MTRPPLVRGIFSLGLSVAVLKGVEKTVRKHLERQGWIEPQKVDYELIFTIDRLKNLVDNKREALTAEQPDAGELSWRKVFNFISRQSSELDTRIYVLILLLSFLLPIAWTVLDGDRETTLEDKDNDCNVDLIENERRLKHYNDGERAVLQFGKNRSEPIILSYKDMNVLEGEHEFTSKEEHSNSHLTSKSENALNQVGSEDLLGCHLEKQLEEDKNEPNGEADGEDDNNREKDCSSSSEVESQSKCRKESTAEPDSLSRDTRTTSSLKSSTSFPISFKGSIDLKSLNQPSSLLHIQVSPTKSSNLDAQVNTEQAYSQPFRY
partner: B1 chain

Variants of: B1
Settings: with lam6_yeast LAM6, Q08001

effect of a mutation on the interaction | Variant
with no effect | MGSCCSCLKDSSDEASVSPIADNEREAVTLLLGYLEDKDQLDFYSGGPLKALTTLVYSDNLNLQRSAALAFAEITEKYVRQVSREVLEPILILLQSQDPQIQVAACAALGNLAVNNENKLLIVEMGGLEPLINQMMGDNVEVQCNAVGCITNLATRDDNKHKIATSGALIPLTKLAKSKHIRVQRNATGALLNMTHSEENRKELVNAGAVPVLVSLLSSTDPDVQYYCTTALSNIAVDEANRKKLAQTEPRLVSKLVSLMDSPSSRVKCQATLALENLASDTSYQLEIVRAGGLPHLVKLIQSDSIPLVLASVACIENISIHPLNEGLIVDAGFLKPLVRLLDYKDSEEIQCHAVSTLENLAASSEKNRKEFFESGAVEKCKELALDSPVSVQSEISACFAILALADVSKLDLLEANILDALIPMTFSQNQEVSGNAAAALANLCSRVNNYTKIIEAWDRPNEGIRGFLIRFLKSDYATFEHIALWTILQLLESHNDKVEDLVKNDDDIINGVRKMADVTFERLQRSGIDVKNPGSNNNPSSNDNNSNNNDTGSEHQPVEDASLELYNITQQILQFLH [R276E;R317E;R359E]

Variants of: B2
Settings: with vac8_yeast VAC8, P39968

Variant | effect of a mutation on the interaction
MTRPPLVRGIFSLGLSVAVLKGVEKTVRKHLERQGWIEPQKVDYELIFTIDRLKNLVDNKREALTAEQPDAGELSWRKVFNFISRQSSELDTRIYVLILLLSFLLPIAWTVLDGDRETTLEDKDNDCNVDLIENERRLKHYNDGERAVLQFGKNRSEPIILSYKDMNVLEGEHEFTSKEEHSNSHLTSKSENALNQVGSEDLLGCHLEKQLEEDKNEPNGEADGEDDNNREKDCSSSSEVESQSKCRKESTAEPDSLSRDTRTTSSLKSSTSFPISFKGSIDLKSLNQPSSLLHIQVSPTESSNLDAQVNTEQAYSQPFRY [K301E] | decreasing interaction strength
MTRPPLVRGIFSLGLSVAVLKGVEKTVRKHLERQGWIEPQKVDYELIFTIDRLKNLVDNKREALTAEQPDAGELSWRKVFNFISRQSSELDTRIYVLILLLSFLLPIAWTVLDGDRETTLEDKDNDCNVDLIENERRLKHYNDGERAVLQFGKNRSEPIILSYKDMNVLEGEHEFTSKEEHSNSHLTSKSENALNQVGSEDLLGCHLEKQLEEDKNEPNGEADGEDDNNREKDCSSSSEVESQSKCRKESTAEPDSLSRDTRTTSSLKSSTSFPISFKGSIDLKSLNQPSSLLHRQVSPTKSSNLDAQVNTEQAYSQPFRY [I295R] | decreasing interaction strength

More lines, now with the values ahead:

effect of a mutation on the interaction | Variant
disrupting interaction strength | MTRPPLVRGIFSLGLSVAVLKGVEKTVRKHLERQGWIEPQKVDYELIFTIDRLKNLVDNKREALTAEQPDAGELSWRKVFNFISRQSSELDTRIYVLILLLSFLLPIAWTVLDGDRETTLEDKDNDCNVDLIENERRLKHYNDGERAVLQFGKNRSEPIILSYKDMNVLEGEHEFTSKEEHSNSHLTSKSENALNQVGSEDLLGCHLEKQLEEDKNEPNGEADGEDDNNREKDCSSSSEVESQSKCRKESTAEPDSLSRDTRTTSSLKSSTSFPISFKGSIDLKSLNQPSSLLHRQVSPTKSSNLDRQVNTEQAYSQPERY [I295R;A307R;F319E]
decreasing interaction strength | MTRPPLVRGIFSLGLSVAVLKGVEKTVRKHLERQGWIEPQKVDYELIFTIDRLKNLVDNKREALTAEQPDAGELSWRKVFNFISRQSSELDTRIYVLILLLSFLLPIAWTVLDGDRETTLEDKDNDCNVDLIENERRLKHYNDGERAVLQFGKNRSEPIILSYKDMNVLEGEHEFTSKEEHSNSHLTSKSENALNQVGSEDLLGCHLEKQLEEDKNEPNGEADGEDDNNREKDCSSSSEVESQSKCRKESTAEPDSLSRDTRTTSSLKSSTSFPISFKGSIDLKSLNQPSSLLHIQVSPTKSSNLDRQVNTEQAYSQPFRY [A307R]
with no effect | MTRPPLVRGIFSLGLSVAVLKGVEKTVRKHLERQGWIEPQKVDYELIFTIDRLKNLVDNKREALTAEQPDAGELSWRKVFNFISRQSSELDTRIYVLILLLSFLLPIAWTVLDGDRETTLEDKDNDCNVDLIENERRLKHYNDGERAVLQFGKNRSEPIILSYKDMNVLEGEHEFTSKEEHSNSHLTSKSENALNQVGSEDLLGCHLEKQLEEDKNEPNGEADGEDDNNREKDCSSSSEVESQSKCRKESTAEPDSLSRDTRTTSSLKSSTSFPISFKGSIDLKSLNQPSSLLHIQVSPTKSANLDAQVNTEQAYSQPFRY [S303A]
disrupting interaction strength | MTRPPLVRGIFSLGLSVAVLKGVEKTVRKHLERQGWIEPQKVDYELIFTIDRLKNLVDNKREALTAEQPDAGELSWRKVFNFISRQSSELDTRIYVLILLLSFLLPIAWTVLDGDRETTLEDKDNDCNVDLIENERRLKHYNDGERAVLQFGKNRSEPIILSYKDMNVLEGEHEFTSKEEHSNSHLTSKSENALNQVGSEDLLGCHLEKQLEEDKNEPNGEADGEDDNNREKDCSSSSEVESQSKCRKESTAEPDSLSRDTRTTSSLKSSTSFPISFKGSIDLKSLNQPSSLLHIQVSPTKSSNLDAQVNTEQAYSQPERY [F319E]
